We go through three molecules from article PMC6746776, “TA*p63 and GTAp63 achieve tighter transcriptional regulation in quality control by converting an inhibitory element into an additional transactivation domain” (Cell Death & Disease, 2019).

Data set [1] concerns the molecule itself. The data set can be described thus: SEC; in vitro translated protein in rabbit reticulocyte lysate on Superose 6 3.2/300, 50 mM sodium phosphate pH 7.8, 100 mM NaCl, 4 °C; fractions analysed by western blot.
For data set [2], the target named is TAp63α FWL. The description is as above.
Data set [3] deals with the molecule itself. The data set can be described thus: native gel or EMSA; Blue-Native PAGE (3-12%) of Sum159 lysate, endogenous protein, before doxorubicin.
Data set [4] deals with the molecule itself. The data set can be described thus: native gel or EMSA; Blue-Native PAGE (3-12%) of Sum159 lysate, endogenous protein, cells treated with 10 µM doxorubicin for different periods of time.
The target of data set [5] is T1, TA*-GTA* peptide (1*-39*) (fluorescein on the N-terminus).
T1 chain: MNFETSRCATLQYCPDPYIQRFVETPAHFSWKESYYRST
The data set can be described thus: fluorescence polarisation; fluorescence anisotropy; 100 nM N-terminally fluorescein-labelled peptide, increasing concentration of Taz2; 22 °C; two site specific binding fit. The settings on record: both partners purified.

Data set [6] concerns the target GTA-GTA* peptide (1′-37′) (not stated (isoform of humans and great apes)). The data set is described as above.

B1: TA*p63α FWL (natural protein, UniProt Q9H3D4-1 1-680, looked up)
chain: MNFETSRCATLQYCPDPYIQRFVETPAHFSWKESYYRSTMSQSTQTNEFLSPEVAQHIADFAEQPICSVQPIDLNFVDEPSEDGATNKIEISMDCIRMQDSDLSDPMWPQYTNLGLLNSMDQQIQNGSSSTSPYNTDHAQNSVTAPSPYAQPSSTFDALSPSPAIPSNTDYPGPHSFDVSFQQSSTAKSATWTYSTELKKLYCQIAKTCPIQIKVMTPPPQGAVIRAMPVYKKAEHVTEVVKRCPNHELSREFNEGQIAPPSHLIRVEGNSHAQYVEDPITGRQSVLVPYEPPQVGTEFTTVLYNFMCNSSCVGGMNRRPILIIVTLETRDGQVLGRRCFEARICACPGRDRKADEDSIRKQQVSDSTKNGDGTKRPFRQNTHGIQMTSIKKRRSPDDELLYLPVRGRETYEMLLKIKESLELMQYLPQHTIETYRQQQQQQHQHLLQKQTSIQSPSSYGNSSPPLNKMNSMNKLPSVSQLINPQQRNALTPTTIPDGMGANIPMMGTHMPMAGDMNGLSPTQALPPPLSMPSTSHCTPPPPYPTDCSIVSFLARLGCSSCLDYFTTQGLTTIYQIEHYSMDDLASLKIPEQFRHAIWKGILDHRQLHEFSSPSHLLRTPSSASTVSVGSSETRGERVIDAVRFTLRQTISFPPRDEWNDFNFDMDARRNKQQRIKEEGE
notes: TA*p63α: another translation start site adds 39 aa N-terminally to TAp63α; also called FWL mutant of TA*p63α; source: in vitro translated (rabbit reticulocyte lysate); not shown: myc, N-terminal, kept
B1: the “stoichiometry N” value in data set [1] came out at 2; in data set [2], 4.

B2: TA*p63α (natural protein, human (endogenous in Sum159), UniProt Q9H3D4-1 1-680, looked up)
chain: MNFETSRCATLQYCPDPYIQRFVETPAHFSWKESYYRSTMSQSTQTNEFLSPEVFQHIWDFLEQPICSVQPIDLNFVDEPSEDGATNKIEISMDCIRMQDSDLSDPMWPQYTNLGLLNSMDQQIQNGSSSTSPYNTDHAQNSVTAPSPYAQPSSTFDALSPSPAIPSNTDYPGPHSFDVSFQQSSTAKSATWTYSTELKKLYCQIAKTCPIQIKVMTPPPQGAVIRAMPVYKKAEHVTEVVKRCPNHELSREFNEGQIAPPSHLIRVEGNSHAQYVEDPITGRQSVLVPYEPPQVGTEFTTVLYNFMCNSSCVGGMNRRPILIIVTLETRDGQVLGRRCFEARICACPGRDRKADEDSIRKQQVSDSTKNGDGTKRPFRQNTHGIQMTSIKKRRSPDDELLYLPVRGRETYEMLLKIKESLELMQYLPQHTIETYRQQQQQQHQHLLQKQTSIQSPSSYGNSSPPLNKMNSMNKLPSVSQLINPQQRNALTPTTIPDGMGANIPMMGTHMPMAGDMNGLSPTQALPPPLSMPSTSHCTPPPPYPTDCSIVSFLARLGCSSCLDYFTTQGLTTIYQIEHYSMDDLASLKIPEQFRHAIWKGILDHRQLHEFSSPSHLLRTPSSASTVSVGSSETRGERVIDAVRFTLRQTISFPPRDEWNDFNFDMDARRNKQQRIKEEGE
notes: also called endogenous TA*p63α of Sum159 cells; source: endogenous, Sum159 lysate
With B2, the “stoichiometry N” value in data set [3] was determined as 2; in data set [4], 4.

B3: p300 Taz2 domain (domain or fragment)
chain: ATQSPGDSRRLSIQRCIQSLVHACQCRNANCSLPSCQKMKRVVQHTKGCKRKTNGGCPICKQLIALCCYHAKHCQENKCPVPFCLNIKQK
For B3, the dissociation constant Kd worked out at 13.2 ± 0.93 µM in data set [5] and 4.79 µM in data set [6].

The stoichiometry N is a count of units in the complex or per binding partner. Broadly, the Kd is the concentration at which binding is half-saturated. Read a high Kd as lower affinity.
